Data reported in patent publication US20200002414A1 (published 2020).
Residue numbers refer to the chain shown, from its start. Numbers in names are those of the source.

B1: conditionally active antibody BAP048 (antibody, V domains shown)
VH: EVQLVQSGAEVKKPGESLRISCKGSGYTFTEYTMHWVRQAPGQGLEWMGGINTNNGGTGYNQKFKGRVTISADKSISTAYLQWSSLKASDTAMYYCAHGSLYSYGNSYFDYWGQGTLVTVSS
VL: AIQLTQSPSSLSASVGDRVTITCSATSSVSYMHWYLQKPGQSPQLLIYGTSNLASGVPDRFSGSGSGTDFTLKISRVEAEDVGVYYCQQRSSYPFTFGQGTKVEIK
B2: LC-V029E (antibody, V domains shown)
VH: EVQLQQSGPELVKPGASVKISCKTSGYTFTEYTMHWMKQSHRKSLEWIGGINTNNGGTGYNQKFKGKATLTVDKSSSTAYMELRSLTSEDSAVYFCARGSLYSYGNSYFDYWGQGTLVTVSS
VL: QIVLTQSPAIMSASPGEKVTITCSATSSESYMHWFQQKPGTSPKLWIYGTSNLASGVPARFSGSGSGTSYSLTISRMEAEDAATYYCQQRSSYPFTFGQGTKVEIK
B3: LC-T096D (antibody, V domains shown)
VH: B2 VH
VL: B2 VL with E29V, T96D
B4: LC-F097D (antibody, V domains shown)
VH: B2 VH
VL: B2 VL with E29V, F97D
B5: LC-Y031C (antibody, V domains shown)
VH: B2 VH
VL: B2 VL with E29V, Y31C
B6: LC-S092V (antibody, V domains shown)
VH: B2 VH
VL: B2 VL with E29V, S92V
B7: LC-H033G (antibody, V domains shown)
VH: B2 VH
VL: B2 VL with E29V, H33G
B8: LC-S030D (antibody, V domains shown)
VH: B2 VH
VL: B2 VL with E29V, S30D
B9: LC-H033L (antibody, V domains shown)
VH: B2 VH
VL: B2 VL with E29V, H33L
B10: LC-S092D (antibody, V domains shown)
VH: B2 VH
VL: B2 VL with E29V, S92D
B11: LC-G049C (antibody, V domains shown)
VH: B2 VH
VL: B2 VL with E29V, G49C
B12: LC-R090H (antibody, V domains shown)
VH: B2 VH
VL: B2 VL with E29V, R90H
B13: LC-F097E (antibody, V domains shown)
VH: B2 VH
VL: B2 VL with E29V, F97E
B14: LC-G049P (antibody, V domains shown)
VH: B2 VH
VL: B2 VL with E29V, G49P
B15: LC-G049H (antibody, V domains shown)
VH: B2 VH
VL: B2 VL with E29V, G49H
B16: LC-Q089E (antibody, V domains shown)
VH: B2 VH
VL: B2 VL with E29V, Q89E
B17: LC-Y031D (antibody, V domains shown)
VH: B2 VH
VL: B2 VL with E29V, Y31D
B18: HC-A097T (antibody, V domains shown)
VH: B2 VH with A97T
VL: B2 VL with E29V
B19: HC-T053D (antibody, V domains shown)
VH: B2 VH with T53D
VL: B2 VL with E29V
B20: HC-A097M (antibody, V domains shown)
VH: B2 VH with A97M
VL: B2 VL with E29V
B21: HC-A097S (antibody, V domains shown)
VH: B2 VH with A97S
VL: B2 VL with E29V
B22: HC-A097I (antibody, V domains shown)
VH: B2 VH with A97I
VL: B2 VL with E29V
B23: HC-T053E (antibody, V domains shown)
VH: B2 VH with T53E
VL: B2 VL with E29V

target: T1, human Ror2 (human, UniProt Q01974 34-403, limits assumed); assay: ELISA
T1 construct: also called hROR2; receptor tyrosine kinase-like orphan receptor 2
T1 sequence (Q01974 34-403 limits assumed): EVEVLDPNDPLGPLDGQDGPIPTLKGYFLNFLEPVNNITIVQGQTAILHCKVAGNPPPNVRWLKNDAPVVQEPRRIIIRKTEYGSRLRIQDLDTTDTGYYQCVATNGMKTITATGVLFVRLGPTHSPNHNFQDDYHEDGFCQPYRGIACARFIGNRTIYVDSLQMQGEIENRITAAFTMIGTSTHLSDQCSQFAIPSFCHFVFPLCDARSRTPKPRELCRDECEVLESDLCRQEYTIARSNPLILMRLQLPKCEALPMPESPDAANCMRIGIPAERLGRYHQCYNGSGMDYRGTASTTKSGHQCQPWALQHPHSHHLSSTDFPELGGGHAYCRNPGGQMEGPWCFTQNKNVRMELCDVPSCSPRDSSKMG

Binder	EC50
B1	0.201 µg/mL

target: T2, cynomolgus Ror2 (cynomolgus, UniProt A0A7N9D5U8 34-403); assay: ELISA
T2 construct: also called cynoROR2
T2 sequence (A0A7N9D5U8 entry or part of it): as the sequence (Q01974 34-403 limits assumed) above, with L5P, T212A, M289T, T320A counted along it

Binder	EC50
B1	0.327 µg/mL

target: T3, mouse Ror2 (mouse, UniProt Q9Z138 34-403, limits assumed); assay: ELISA
T3 construct: also called mROR2
T3 sequence (Q9Z138 34-403 limits assumed): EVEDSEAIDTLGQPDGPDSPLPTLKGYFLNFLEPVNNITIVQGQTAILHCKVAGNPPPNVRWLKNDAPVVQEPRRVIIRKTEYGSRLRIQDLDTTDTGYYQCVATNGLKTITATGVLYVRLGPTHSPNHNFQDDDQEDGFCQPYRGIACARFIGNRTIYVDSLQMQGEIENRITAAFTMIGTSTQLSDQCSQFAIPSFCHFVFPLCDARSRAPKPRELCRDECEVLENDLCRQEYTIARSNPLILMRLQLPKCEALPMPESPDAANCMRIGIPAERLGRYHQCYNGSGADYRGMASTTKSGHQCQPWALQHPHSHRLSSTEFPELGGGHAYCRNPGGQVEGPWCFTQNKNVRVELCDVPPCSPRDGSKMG

Binder	EC50
B1	7.65 µg/mL

target: T1, human Ror2; assay: ELISA, human Ror2, pH 6.0

Binder	Affinity ELISA pH 6.0
B2	0.406
B3	0.755
B4	0.19
B5	1.34
B6	1.23
B7	1.1
B8	0.733
B9	0.69
B10	1.13
B11	0.468
B12	0.56
B13	0.489
B14	0.66
B15	1.87
B16	0.438
B17	0.911

target: T1, human Ror2; assay: ELISA, human Ror2, pH 7.4

Binder	Affinity ELISA pH 7.4
B2	0.129
B3	0.474
B4	0.107
B5	0.7
B6	1.18
B7	0.536
B8	0.252
B9	0.332
B10	1.12
B11	0.133
B12	0.256
B13	0.215
B14	0.268
B15	0.118
B16	0.251
B17	0.405

target: T1, human Ror2; assay: ELISA, human Ror2, pH 6.0; remark: another data set of the same source

Binder	Affinity ELISA pH 6.0
B18	1.83
B19	1.11
B20	1.98
B21	1.67
B22	1.89
B23	0.54

target: T1, human Ror2; assay: ELISA, human Ror2, pH 7.4; remark: another data set of the same source

Binder	Affinity ELISA pH 7.4
B18	1.69
B19	0.222
B20	1.7
B21	1.69
B22	1.73
B23	0.157

target: T1, human Ror2; assay: ELISA, human Ror2; ratio of signal at pH 6.0 to pH 7.4

Binder	ratio, pH 6.0/7.4
B2	3.15
B3	1.59
B4	1.77
B5	1.92
B6	1.04
B7	2.06
B8	2.91
B9	2.08
B10	1
B11	3.52
B12	2.19
B13	2.28
B14	2.46
B15	15.9
B16	1.74
B17	2.25

target: T1, human Ror2; assay: as above; remark: another data set of the same source

Binder	ratio, pH 6.0/7.4
B18	1.67
B19	4.99
B20	1.98
B21	1.67
B22	1.89
B23	3.44
